Assay results: patent US20200262913A1 (ZymoGenetics, published 2020)

T1: recombinant human IL-31 (as used in the NHK STAT3 phosphorylation assay of Example 5) (human, UniProt Q6EBC2 24-164, limits assumed)
T1 sequence: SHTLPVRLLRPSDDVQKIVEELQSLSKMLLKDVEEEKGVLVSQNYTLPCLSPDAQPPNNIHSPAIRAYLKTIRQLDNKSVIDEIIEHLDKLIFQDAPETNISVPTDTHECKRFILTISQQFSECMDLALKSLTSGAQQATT

T2: recombinant human IL-31 (hIL-31, BHK produced, A1277F, zcytor17lig CEE) (human, UniProt Q6EBC2 24-164)
T2 construct: also called recombinant hIL-31
T2 sequence: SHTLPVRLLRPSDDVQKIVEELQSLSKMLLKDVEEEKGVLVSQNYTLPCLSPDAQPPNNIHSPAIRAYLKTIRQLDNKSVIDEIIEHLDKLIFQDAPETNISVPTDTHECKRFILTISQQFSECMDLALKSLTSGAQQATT


Columns and labels:
[1] = target: T1, recombinant human IL-31 (as used in the …); assay: cell-based or functional assay
[2] = target: T2, recombinant human IL-31 (hIL-31, BHK …); assay: SPR (Biacore), against parent 292.12.3.1
Procedure: (§1) The purified monoclonal antibodies were immobilized in individual flow cells on a CM5 type sensor chip. Immobilizations were performed using a standard amine coupling procedure, aiming for an immobilization level of 500 Resonance Units (RU). The antibodies were diluted to 1-5 ug/ml in 10 mM NaAc pH 4.5.
(§2) HPS-EP pH 7.4 (10 mM HEPES, 150 mM NaCl, 3 mM EDTA and 0.005% Polysorbat P20) was used as running buffer, and diluents for the recombinant hIL-31 (hIL-31, BHK produced, A1277F, zcytor17lig CEE). The hIL-31 was tested in a 3-fold dilution series from 333.3 nM to 1.4 nM. Association (injection) was 4 min., followed by a 20 min. dissociation (wash) period. Flow rate was 50 ul/min. Experiments were performed at 25OC. Regeneration of the surface was accomplished by injection of 30 sec. pulse of 10 mM Glycin-HCl pH 1.8 or 1M formic acid, at a 30 ul/min flow rate. Detection in all flow cells simultaneously. Flow cell #1 contained no immobilized antibody, and was used for subtraction of background and bulk.
(§3) The kinetic parameters were calculated by global fitting of the data using a 1:1 langmuir binding model. Data was inspected for mass-transport limitations prior to calculation of the kinetic parameters. In some experiments the Rmax was fitted locally, and the RI constant at 0.

[3] = target: T2, recombinant human IL-31 (hIL-31, BHK …); assay: SPR (Biacore), mAb amine-coupled to CM5 chip, hIL-31 injected
Procedure: as §1, §2, §3

[4] = target: recombinant human IL-31 (C108S), produced in E. coli by ZymoGenetics, MW 18 kDa (human), Q6EBC2; assay: cell-based or functional assay

IC50, IL-31-induced STAT3 phosphorylation in NHK, Exp 8 [1] [nM] | IC50, IL-31-induced STAT3 phosphorylation in NHK, Exp 9 [1] [nM] | Relative potency loss (KD) [2] | Relative potency loss (kd) [2] | Kd [3] [nM] | koff [3] [s⁻¹] | kon [3] [M⁻¹ s⁻¹] | Average Fold loss in potency relative to 292.12.3.1, BAF-3(hIL-31R) proliferation assay [4] [fold] | Average Potency (IC50), inhibition of hIL-31-induced proliferation of BAF-3(hIL-31R) cells [4] [nM] | Binder
3.42 | 9.59 | ~0.5 x to parent | ~1.3 x to parent | 0.8 | 7.9e-05 | 98000 | 18.7 | 29.1 | humanized 292.12.3.1 construct clone 27 (12VH1-gly + HC(F29L, M69L, R94F) + LC(F71Y)) (antibody, human IgG4, V domains shown) VH: QVQLVQSGAEVKKPGASVKVSCKASGYTLTRYWMQWVRQAPGQGLEWMGAIYPGDGDTRYSQKFQGRVTLTRDTSISTVYMELSSLRSEDTAVYYCAFPDGYYAAPYGMDYWGQGTLVTVSS VL: DIQMTQSPSSLSASVGDRVTITCRASGNIHNYLAWYQQKPGKVPKLLIYNAKTLADGVPSRFSGSGSGTDYTLTISSLQPEDVATYYCQHFWSTPWTFGQGTKVEIKR
14.8 | 8.71 | ~0.5 x to parent | ~1.5 x to parent | 1.1 | 9e-05 | 78000 | 37.1 | 57.8 | humanized 292.12.3.1 construct clone 30 (12VH1-gly + HC(F29L, V78A, R94F) + LC(F71Y)) (antibody, human IgG4, V domains shown) VH: QVQLVQSGAEVKKPGASVKVSCKASGYTLTRYWMQWVRQAPGQGLEWMGAIYPGDGDTRYSQKFQGRVTMTRDTSISTAYMELSSLRSEDTAVYYCAFPDGYYAAPYGMDYWGQGTLVTVSS VL: DIQMTQSPSSLSASVGDRVTITCRASGNIHNYLAWYQQKPGKVPKLLIYNAKTLADGVPSRFSGSGSGTDYTLTISSLQPEDVATYYCQHFWSTPWTFGQGTKVEIKR
10.5 | 5.95 | ~0.25 x to parent |  | 0.46 | 5.6e-05 | 120000 | 17.1 | 26.4 | humanized 292.12.3.1 construct clone 28 (12VH1-gly + HC(F29L, R71A, R94F) + LC(F71Y)) (antibody, human IgG4, V domains shown) VH: QVQLVQSGAEVKKPGASVKVSCKASGYTLTRYWMQWVRQAPGQGLEWMGAIYPGDGDTRYSQKFQGRVTMTADTSISTVYMELSSLRSEDTAVYYCAFPDGYYAAPYGMDYWGQGTLVTVSS VL: DIQMTQSPSSLSASVGDRVTITCRASGNIHNYLAWYQQKPGKVPKLLIYNAKTLADGVPSRFSGSGSGTDYTLTISSLQPEDVATYYCQHFWSTPWTFGQGTKVEIKR
4.49 | 5.37 | ~0.5 x to parent | ~1.5 x to parent | 0.99 | 8.98e-05 | 90000 | 8.3 | 12.9 | humanized 292.12.3.1 construct clone 29 (12VH1-gly + HC(F29L, T73K, R94F) + LC(F71Y)) (antibody, human IgG4, V domains shown) VH: QVQLVQSGAEVKKPGASVKVSCKASGYTLTRYWMQWVRQAPGQGLEWMGAIYPGDGDTRYSQKFQGRVTMTRDKSISTVYMELSSLRSEDTAVYYCAFPDGYYAAPYGMDYWGQGTLVTVSS VL: DIQMTQSPSSLSASVGDRVTITCRASGNIHNYLAWYQQKPGKVPKLLIYNAKTLADGVPSRFSGSGSGTDYTLTISSLQPEDVATYYCQHFWSTPWTFGQGTKVEIKR
11 | 7.82 | ~0.4 x to parent |  | 0.77 | 7e-05 | 92000 | 25.1 | 32.4 | humanized 292.12.3.1 construct clone 31 (12VH1-gly + HC(F29L, M69L, R71A, V78A, R94F) + LC(F71Y)) (antibody, human IgG4, V domains shown) VH: QVQLVQSGAEVKKPGASVKVSCKASGYTLTRYWMQWVRQAPGQGLEWMGAIYPGDGDTRYSQKFQGRVTLTADTSISTAYMELSSLRSEDTAVYYCAFPDGYYAAPYGMDYWGQGTLVTVSS VL: DIQMTQSPSSLSASVGDRVTITCRASGNIHNYLAWYQQKPGKVPKLLIYNAKTLADGVPSRFSGSGSGTDYTLTISSLQPEDVATYYCQHFWSTPWTFGQGTKVEIKR
